Laboratory results from paper PMC3823998, “Structural and Functional Characterization of the Redβ Recombinase from Bacteriophage λ” (PLoS ONE, 2013).

Experiments:
Assay in all cases: EMSA; glutaraldehyde-fixed; ssDNA EMSA: 10 nM DNA, 50 mM potassium phosphate pH 6.0, 5 mM EDTA, 5% glycerol, 0.1 mg/ml BSA, 37°C, 40 min, then 0.1% glutaraldehyde; second-strand EMSA: 5 nM each strand, 20 mM Tris-HCl pH 7.5, 5 mM MgCl2, 1 mM DTT, 0.1 mg/ml BSA, 37°C
Settings in all cases: protein: recombinant; tags: His6 removed; N-terminal GSH left; label: 5' Cy3
Redβ R161A = biological target: T1, Redβ R161A (Bacteriophage λ (Enterobacteria phage λ), UniProt P03698 1-261, R161A)
T1 sequence: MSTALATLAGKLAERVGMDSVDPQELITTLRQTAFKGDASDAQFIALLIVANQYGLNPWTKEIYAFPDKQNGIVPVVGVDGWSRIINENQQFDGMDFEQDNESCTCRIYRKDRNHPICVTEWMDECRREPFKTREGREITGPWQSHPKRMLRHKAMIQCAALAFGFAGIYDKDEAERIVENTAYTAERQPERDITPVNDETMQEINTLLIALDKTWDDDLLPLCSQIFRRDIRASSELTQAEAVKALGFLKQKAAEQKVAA

Redβ K69A = biological target: T2, Redβ K69A (Bacteriophage λ (Enterobacteria phage λ), UniProt P03698 1-261, K69A)
T2 sequence: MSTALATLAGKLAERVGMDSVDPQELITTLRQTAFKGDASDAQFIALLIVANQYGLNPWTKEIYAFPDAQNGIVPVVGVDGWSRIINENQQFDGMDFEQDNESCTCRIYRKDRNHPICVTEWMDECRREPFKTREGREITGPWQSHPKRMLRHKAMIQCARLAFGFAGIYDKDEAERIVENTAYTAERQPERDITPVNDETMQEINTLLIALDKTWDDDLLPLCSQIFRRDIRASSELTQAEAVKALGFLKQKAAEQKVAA

Redβ Y64A = biological target: T3, Redβ Y64A (Bacteriophage λ (Enterobacteria phage λ), UniProt P03698 1-261, Y64A)
T3 sequence: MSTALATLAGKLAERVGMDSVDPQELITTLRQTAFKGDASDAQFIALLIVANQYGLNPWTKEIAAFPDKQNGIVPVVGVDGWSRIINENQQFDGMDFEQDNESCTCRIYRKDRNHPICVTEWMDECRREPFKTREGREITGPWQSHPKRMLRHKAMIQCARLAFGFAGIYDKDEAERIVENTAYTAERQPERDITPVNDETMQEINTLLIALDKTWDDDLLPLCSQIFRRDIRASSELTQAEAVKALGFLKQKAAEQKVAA

Redβ K148A = biological target: T4, Redβ K148A (Bacteriophage λ (Enterobacteria phage λ), UniProt P03698 1-261, K148A)
T4 sequence: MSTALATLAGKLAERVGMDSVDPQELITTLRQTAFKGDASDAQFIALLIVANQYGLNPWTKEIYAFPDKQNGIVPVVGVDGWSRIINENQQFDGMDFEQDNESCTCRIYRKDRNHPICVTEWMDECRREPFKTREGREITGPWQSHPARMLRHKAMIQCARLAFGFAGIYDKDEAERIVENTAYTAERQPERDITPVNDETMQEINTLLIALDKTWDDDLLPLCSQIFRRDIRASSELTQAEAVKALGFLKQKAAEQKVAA

Redβ G78A = biological target: T5, Redβ G78A (Bacteriophage λ (Enterobacteria phage λ), UniProt P03698 1-261, G78A)
T5 sequence: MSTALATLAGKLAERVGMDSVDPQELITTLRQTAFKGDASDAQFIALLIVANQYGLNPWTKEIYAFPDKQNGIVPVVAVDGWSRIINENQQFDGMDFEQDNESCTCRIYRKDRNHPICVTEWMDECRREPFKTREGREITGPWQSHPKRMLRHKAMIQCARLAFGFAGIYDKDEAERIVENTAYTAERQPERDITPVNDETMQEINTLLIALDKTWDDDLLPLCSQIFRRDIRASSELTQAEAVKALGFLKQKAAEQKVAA

Redβ K172A = biological target: T6, Redβ K172A (Bacteriophage λ (Enterobacteria phage λ), UniProt P03698 1-261, K172A)
T6 sequence: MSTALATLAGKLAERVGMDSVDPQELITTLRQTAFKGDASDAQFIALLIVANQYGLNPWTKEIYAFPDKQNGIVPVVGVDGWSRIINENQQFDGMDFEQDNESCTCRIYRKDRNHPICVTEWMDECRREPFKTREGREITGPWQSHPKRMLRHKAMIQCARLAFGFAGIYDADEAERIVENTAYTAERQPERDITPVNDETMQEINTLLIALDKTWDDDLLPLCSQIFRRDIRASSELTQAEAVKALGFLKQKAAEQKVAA

**Q.** How did the binding signal (Redβ R161A) turn out when TGCGGATGGCTTAGAGCTTAATTGCTGAATCTGGTGCTGTAGCTCAACAT (ssDNA) [50-minus ssDNA] was run?
**A.** 11 % of WT binding at 3 µM protein

**Q.** And the binding signal (Redβ K69A)?
**A.** 94 % of WT binding at 3 µM protein

**Q.** And the binding signal (Redβ Y64A)?
**A.** 98 % of WT binding at 3 µM protein

**Q.** And the binding signal (Redβ K148A)?
**A.** 43 % of WT binding at 3 µM protein

**Q.** And the binding signal (Redβ G78A)?
**A.** 33 % of WT binding at 3 µM protein

**Q.** And the binding signal (Redβ K172A)?
**A.** 76 % of WT binding at 3 µM protein
